Experimental data: patent US7271172B2, “Pyrrolidine and azetidine compounds as CCR5 antagonists” (SmithKline Beecham Corporation, priority 2002, dated 2007)

Target: T1, human CCR5 chemokine receptor (Homo sapiens, UniProt P51681)
T1 construct: host or cells: Chinese Hamster Ovary (CHO) cells; membranes prepared from the cell pellet
Assay: CC-Chemokine Receptor-5 Binding by Scintillation Proximity Assay (CCR5 SPA), displacement of [125I]MIP1α
Details: standard compound, 14-point concentration-response curve in triplicate, starting concentration 1 μM
Method: CC-Chemokine Receptor-5 Binding by Scintillation Proximity Assay (CCR5 SPA) Scintillation Proximity Assay for the Human CC-Chemokine Receptor, CCR-5
This protocol describes a high-throughput screen using SPA binding to identify compounds that inhibit binding of ^125-MIP1α to the human CCR5 chemokine receptor.
Human CCR5 receptors were expressed in Chinese Hamster Ovary (CHO) cells, registration # 12025. Cells were grown in suspension and a 50 to 80 ml CCR5 cell pellet was prepared. […]
The saturation curve binding experiment is performed by adding varying amounts of [^125I]MIP1α (0-8.5 nM to membranes and beads in concentrations chosen from the optimal protein/bead ratio. The data is analyzed using a non-linear curve-fitting program. The Kd and Bmax are derived from the curve. […]

T1 sequence (P51681 whole entry): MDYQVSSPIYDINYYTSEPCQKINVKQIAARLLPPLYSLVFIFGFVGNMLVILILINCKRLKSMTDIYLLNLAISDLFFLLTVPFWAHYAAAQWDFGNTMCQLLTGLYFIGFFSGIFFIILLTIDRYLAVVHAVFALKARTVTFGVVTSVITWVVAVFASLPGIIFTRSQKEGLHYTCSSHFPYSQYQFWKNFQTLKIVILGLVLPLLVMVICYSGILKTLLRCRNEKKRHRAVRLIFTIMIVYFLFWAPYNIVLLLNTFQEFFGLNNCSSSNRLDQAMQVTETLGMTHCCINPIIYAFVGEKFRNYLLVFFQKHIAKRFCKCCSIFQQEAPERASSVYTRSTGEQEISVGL

With “MIP1α: natural chemokine ligand of CCR5; standard compound of the CCR5 SPA binding assay” the “average historical pKi” value was 7.6.
